B1: SEQ ID NO:3: fragment of brain glycogen phosphorylase nucleic acid ending at position 140 (nucleic acid)
DNA: ATGGGCGAACCGCTGACGGACAGCGAGAAGCGGAAGCAGATCAGCGTGCGCGGCCTGGCGGGGCTAGGCGACGTGGCCGAG
modifications: chemistry not fully specified
B2: SEQ ID NO:1: shortest exonuclease III fragment of brain glycogen phosphorylase nucleic acid, ending 100 bp after the start codon (nucleic acid)
DNA: ATGGGCGAACCGCTGACGGACAGCGAGAAGCGGAAGCAGATCAGCGTGCGCGGCCTGGCGGGGCTAGGCGACGTGGCCGAGGTGCGGAAGAGCTTCAACCGGCACTTGCA
modifications: chemistry not fully specified
notes: shortest exonuclease III fragment of brain glycogen phosphorylase nucleic acid, ending 100 bp after the start codon
B3: SEQ ID NO:2: fragment of brain glycogen phosphorylase nucleic acid ending at position 161 (nucleic acid)
DNA: ATGGGCGAACCGCTGACGGACAGCGAGAAGCGGAAGCAGATCAGCGTGCGCGGCCTGGCGGGGCTAGGCGACGTGGCCGAGGTGCGGAAGAGCTTCAACCGG
modifications: chemistry not fully specified

The molecules below were run on antigen recognized by CTL 246/76 (assay: TNF release from CTL 246/76 provoked by HOB cells transfected with cDNA fragment and HLA-A2). Conditions: fragment cotransfected with HLA-A2 into HOB cells.
Format: cell-based, human
Experimental: The transfection of HOB cells was made in duplicate wells. Briefly, samples of HOB cells were seeded, at 15,000 cells/well into tissue culture flat bottom microwells, in DMEM supplemented with 10% fetal calf serum. The cells were incubated overnight at 37° C., medium was removed and then replaced by 100 μl/well total volume of DMEM medium containing 20% Nu-Serum (Collaborative Research, Bedford, Mass.), 300 μg/ml DEAE-dextran, and 200 μM chloroquine, plus 100 ng of the LB373-MEL cDNA library cloned in pcDNAI/Amp and 50 ng of HLA-A2 cloned in pcDNAI/Amp. Following four hours of incubation at 37° C., the medium was removed, and replaced by 50 μl of PBS containing 10% dimethyl sulfoxide (DMSO). This medium was removed after two minutes and replaced by 200 μl of DMEM supplemented with 10% FCS.
Following this change in medium, HOB cells were incubated for 48 hours at 37° C. The transfectants then were screened with CTL 246/76. After first removing the medium, 2000 CTL 246/76 cells were added to each well in 100 μl of medium containing 25 U/ml IL-2. The amount of TNF present in the supernatant was then measured by testing its cytotoxicity for WEHI 164.13 cells. Most pools gave a TNF concentration below 5 pg/ml. cDNAs from pools which gave higher concentrations in both of the duplicate wells were cloned in bacteria. Their plasmid DNA was extracted and transfected into HOB cells with HLA-A2. The transfectants were screened with CTL 246/76. One cDNA clone gave a high TNF production by CTL 246/76. The cDNA was sequenced, compared with DNA sequence databases and determined to encode brain glycogen phosphorylase.
Fragments of the brain glycogen phosphorylase cDNA were prepared by exonuclease III digestion from the 3' end of the cDNA according to art standard procedures, were cloned into an expression vector and transfected into HOB cells with HLA-A2 as described above. As a positive control, the brain glycogen phosphorylase cDNA was cotransfected with HLA-A2 into HOB cells. These transfectants were used to provoke release of TNF from CTL 246/76 cells.
Shorter fragments were generated by PCR. […]

**Q.** With B1 as the molecule, how does the “confers expression of the antigen recognized by CTL 246/76” value (shortened to “confers expression”) read?
**A.** did not confer expression of the antigen

**Q.** B2 was tested. Which “confers expression” value did it give?
**A.** able to confer expression of the antigen

**Q.** Which “confers expression” value does the source give for B3 here?
**A.** did confer expression of the antigen
